Here are results for 3 molecules from patent publication US20260234204A1, “BRK PEPTIDES AND METHODS OF USE” (Concarlo Therapeutics, Inc., priority 2023, published 2026).

Assay type in all cases: cell-based
The test system of test [1] is PDAC cell lines. In words: ROS-Glo assay in PDAC cells. The procedure:
(§1) FIGS. 2A-2F. FIGS. 2A and 2B are Western Blots, illustrating results from assays performed with treatment naive cells to analyze the expression levels of p27. Cells were harvested with RIPA buffer supplemented with protease inhibitors. The MCF7-ALT Dox inducible cell line was used as a control. […] Cells were treated with increasing concentrations of IpY.20 for 24h. Viability was measured using the Cell Titer Glo assay (Promega). Viability was calculated relative to untreated control cells. N=4 *p<0.05. […] FIGS. 2D, 2E and 2F are graphs illustrating that IpY.20 induces ROS. Cells were treated with IpY.20 for 24 h. ROS levels were measured using ROS-Glo assay (Promega). % ROS was calculated relative to untreated control cells. N=4 *p<0.05. The MCF7-ALT inducible cell line induced ROS.

Test [2] concerns PDAC cell lines. In words: Rescue of IpY.20 effect on viability by pretreatment with inhibitors. The protocol:
When the less sensitive PDAC lines were treated with IpY.20, pRIPK1 expression, a marker of necroptosis, increased (FIG. 3A). To determine if ROS-dependent induction of pRIPK1 and necroptosis was responsible for IpY.20's effect in PDAC cell lines, cells lines (A-D) were treated with N-acetyl-1-cysteine (5 mM) a ROS inhibitor, Necrostatin-1 (10 μM) which prevents RIPK1 phosphorylation and Caspase-3/7 Inhibitor, for 24 h, followed by IpY.20 for the next 24 h. N=4 *p<0.05.
(§2) When these lines were pre-treated with NAC, Nec-1, or Caspase 3/7 inhibitor followed by IpY.20 treatment, differential results were observed. N=4 *p<0.05 (FIGS. 4A-4D). NAC treatment of BxPC3 cells reduced ROS levels (FIG. 4B), but these cells were rescued by caspase treatment (FIG. 4C). […] Percent viability relative to control plotted in all cases. L3.6 (FIG. 4E), PL45 (FIG. 4F) and Panel (FIG. 4G) were rescued by NEC-1, NAC and caspase inhibition to differing extents. Biomarkers dictating response were determined.

The subject of test [3] is CDK4i-resistant and treatment naive breast cancer cells. The experiment in a line: Arrest of breast cancer cells.
Test [4] has as its system Pancreatic Ductal Adenocarcinoma (PDAC) cell lines. In words: Cell viability (Cell Titer Glo) in PDAC cell lines. The protocol:
FIGS. 1A-1D. FIGS. 1A and 1B are respectively a graph and an image showing that PDAC cells are resistant to palbociclib-treatment. Cells were treated with increasing concentrations of palbociclib (PD) for 24 h before analysis for viability (Cell Titer Glo, Promega). N=4 *p<0.05. Control=untreated cells. Viability plotted relative to growth in the presence of control. FIGS. 1C and 1D show PL5 cells treated with increasing concentrations of IpY.20 and E′NP before analysis of Cell Titer Glo analysis.
as §1, with “Cells were treated with IpY.20 for 24 h.” left out, “N=4 *p<0.05. The MCF7-ALT inducible cell line induced ROS.” left out
To test whether PDAC cells might be resistant to CDK4/6 inhibition due to activation of CDK2, experiments were performed. […] Some non-specific liposome toxicity was detected at the high concentrations. […]

For the next test, the system named is BxPC3. In words: Caspase-Glo 3/7 Assay for apoptosis. The conditions noted are these: treated 24 h.
Excerpt: as §2

The next test deals with pRIPK1. The experiment in a line: pRIPK1 expression (marker of necroptosis).
[5] abbreviates: L3.6, PL45 and Panel, to differing extents.
Where [6] appears, read: PDAC lines that increased pRIPK1, pretreatment 24 h, then IpY.20 24 h.

Regarding `CC(=O)N[C@@H](CS)C(=O)O` [NAC, N-acetyl-1-cysteine], the ROS levels entry in the test on PDAC cell lines [1] (BxPC3 cells, pretreatment followed by IpY.20) is given as “reduced”. The “rescue from IpY.20 effect” value in the test with PDAC cell lines [2] (setting [5]) and with PDAC cell lines [2] (setting [6]) was “rescued” throughout.
`CN1C(=O)C(Cc2c[nH]c3ccccc23)NC1=S` (stereo not drawn) [Nec1, Necrostatin-1]: the “rescue from IpY.20 effect” value in the test on PDAC cell lines [2] (setting [5]) and in the test with PDAC cell lines [2] (setting [6]) was “rescued” in each case.

B1: IpY.20: smaller and more stable variant of ALT, SEQ ID NO: 6; tested as liposomal IpY.20 (peptide)
chain: MVSRDQAHLGPKYVGLWDFKSRTDEELSFRAGDVFHVARKEEQWWWATLLDEAGGAVAQGYVPHNYLAERETVESEPAGHAGSAALQDLAA
modifications: liposomal formulation
For the molecule B1, the ROS levels result with PDAC cell lines [1] (treated 24 h, relative to untreated control cells) is reported as “induces ROS”. Further, the “ability to arrest cells” value in test [3] is “behaved similarly to IpY.1”. In addition, in test [4] (PL5, Panc1, L3.6 and BXPC3), the sensitivity to treatment result was “super sensitivity”. Besides, the “viability of CDK4i resistant pancreatic cell lines” value in test [4] (increasing concentrations for 24h, relative to untreated control) is “reduces viability”. Besides, the caspase expression entry with BxPC3 is “strongly induced”. In addition, the results for the pRIPK1 expression result with pRIPK1 (Super sensitive PDAC lines) and with pRIPK1 (less sensitive PDAC lines) were “did not exhibit induction” and “increased”, respectively.
